In paper PMC5858766, “Identification of aaNAT5b as a spermine N-acetyltransferase in the mosquito, Aedes aegypti” (PLoS ONE, 2018):

Legend:
Assay in all cases: purified protein
Assay type in all cases: biochemical, Aedes aegypti
Settings in all cases: 0.4 mM acetyl-CoA, 50 mM Tris-HCl, 1 mg/mL BSA, room temperature, 5 min; apparent Km
purified protein [1] = substrate: NN
purified protein [2] = substrate: NCCCCN
purified protein [3] = substrate: NCCCCNCCCN
purified protein [4] = substrate: NCCCNCCCCNCCCN
purified protein [5] = substrate: NCCc1c[nH]cn1
purified protein [6] = substrate: N=C(N)NCCCCN

B1: aaNAT5b/SAT (Aedes aegypti) (protein)
chain: MVAPESIVLRVARLDELEQVREILHRIYYPEEGITISYVHGKSHTLDDERFSLSFVEQGTVVVAEDSAAKKFIGVSIAGPIQPGDPDAMVEEAATTETKKWGDILKLLALLERTADVCGRYGLEKAYHVHILAVDPTYRGHSLGQRLLQFQMDLSKKLGFKAISGDFTSVFSVKLAEKLGMECISQLALGDYRDEKGEKLFEPLDVHQVIKTCVKLL
notes: about 25 kDa; monomer
Km (purified protein [1]): 260 ± 30 µM
kcat (purified protein [1]): 0.637 ± 0.0283 s⁻¹
kcat/Km (purified protein [1]): 2450 M⁻¹ s⁻¹
Km (purified protein [2]): 520 ± 110 µM
kcat (purified protein [2]): 0.503 ± 0.0267 s⁻¹
kcat/Km (purified protein [2]): 967 M⁻¹ s⁻¹
Km (purified protein [3]): 690 ± 120 µM
kcat (purified protein [3]): 0.26 ± 0.0233 s⁻¹
kcat/Km (purified protein [3]): 383 M⁻¹ s⁻¹
Km (purified protein [4]): 170 ± 40 µM
kcat (purified protein [4]): 3.32 ± 0.2 s⁻¹
kcat/Km (purified protein [4]): 19500 M⁻¹ s⁻¹
Km (purified protein [5]): 700 ± 130 µM
kcat (purified protein [5]): 0.277 ± 0.0217 s⁻¹
kcat/Km (purified protein [5]): 400 M⁻¹ s⁻¹
Km (purified protein [6]): 210 ± 50 µM
kcat (purified protein [6]): 2.5 ± 0.183 s⁻¹
kcat/Km (purified protein [6]): 11900 M⁻¹ s⁻¹
